# Data taken from US6537804B1, “BCR-ABL directed compositions and uses for inhibiting Philadelphia chromesome stimulated cell growth” (Board of Regents, The University of Texas Systems, priority 1995, dated 2003).
# Residue numbers refer to the chain shown, from its start. Non-standard residues stand in square brackets, D forms with d. No end group written: not given here. pY = N[C@@H](Cc1ccc(OP(=O)(O)O)cc1)C(=O)O
# T1: amino terminal SH2 domain of Ras Gap (Homo sapiens, UniProt P20936)
# T1 construct: the amino terminal SH2 domain of Ras Gap was expressed as a fusion protein containing the glutathione S transferase protein (GST); made in house
# T1 sequence (P20936 181-272 limits assumed): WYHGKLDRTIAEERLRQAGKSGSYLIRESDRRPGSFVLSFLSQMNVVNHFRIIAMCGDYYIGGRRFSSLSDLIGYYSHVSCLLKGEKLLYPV
# T2: c-Abl SH2 (Mus musculus, UniProt P00520)
# T2 construct: The inventors performed similar studies with the SH2 domain of Abl; made in house
# T2 sequence (P00520 127-217 limits assumed): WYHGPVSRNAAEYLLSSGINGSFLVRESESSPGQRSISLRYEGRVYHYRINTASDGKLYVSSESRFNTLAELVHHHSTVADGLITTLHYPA
# B1: wild type p160 PCR: wild type full length human p160 BCR tyrosine phosphorylated by p145 c-ABL(1b) (protein)
# chain: MVDPVGFAEAWKAQFPDSEPPRMELRSVGDIEQELERCKASIRRLEQEVNQERFRMIYLQTLLAKEKKSYDRQRWGFRRAAQAPDGASEPRASASRPQPAPADGADPPPAEEPEARPDGEGSPGKARPGTARRPGAAASGERDDRGPPASVAALRSNFERIRKGHGQPGADAEKPFYVNVEFHHERGLVKVNDKEVSDRISSLGSQAMQMERKKSQHGAGSSVGDASRPPYRGRSSESSCGVDGDYEDAELNPRFLKDNLIDANGGSRPPWPPLEYQPYQSIYVGGMMEGEGKGPLLRSQSTSEQEKRLTWPRRSYSPRSFEDCGGGYTPDCSSNENLTSSEEDFSSGQSSRVSPSPTTYRMFRDKSRSPSQNSQQSFDSSSPPTPQCHKRHRHCPVVVSEATIVGVRKTGQIWPNDGEGAFHGDADGSFGTPPGYGCAADRAEEQRRHQDGLPYIDDSPSSSPHLSSKGRGSRDALVSGALESTKASELDLEKGLEMRKWVLSGILASEETYLSHLEALLLPMKPLKAAATTSQPVLTSQQIETIFFKVPELYEIHKEFYDGLFPRVQQWSHQQRVGDLFQKLASQLGVYRAFVDNYGVAMEMAEKCCQANAQFAEISENLRARSNKDAKDPTTKNSLETLLYKPVDRVTRSTLVLHDLLKHTPASHPDHPLLQDALRISQNFLSSINEEITPRRQSMTVKKGEHRQLLKDSFMVELVEGARKLRHVFLFTDLLLCTKLKKQSGGKTQQYDCKWYIPLTDLSFQMVDELEAVPNIPLVPDEELDALKIKISQIKNDIQREKRANKGSKATERLKKKLSEQESLLLLMSPSMAFRVHSRNGKSYTFLISSDYERAEWRENIREQQKKCFRSFSLTSVELQMLTNSCVKLQTVHSIPLTINKEDDESPGLYGFLNVIVHSATGFKQSSNLYCTLEVDSFGYFVNKAKTRVYRDTAEPNWNEEFEIELEGSQTLRILCYEKCYNKTKIPKEDGESTDRLMGKGQVQLDPQALQDRDWQRTVIAMNGIEVKLSVKFNSREFSLKRMPSRKQTGVFGVKIAVVTKRERSKVPYIVRQCVEEIERRGMEEVGIYRVSGVATDIQALKAAFDVNNKDVSVMMSEMDVNAIAGTLKLYFRELPEPLFTDEFYPNFAEGIALSDPVAKESCMLNLLLSLPEANLLTFLFLLDHLKRVAEKEAVNKMSLHNLATVFGPTLLRPSEKESKLPANPSQPITMTDSWSLEVMSQVQVLLYFLQLEAIPAPDSKRQSILFSTEV
# B2: p160 BCR lacking tyrosine 177: tyrosine 177 to phenylalanine mutant of p160 BCR (protein)
# chain: B1 chain with Y177F
# Tests used:
# [1] = molecular target: T1, amino terminal SH2 domain of Ras Gap; assay: Binding of phosphotyrosine tryptic peptides of Bcr-Abl to GST-Gap SH2; conditions: phosphotyrosine tryptic peptides of p210 Bcr-Abl; no binding to GST
# Text: The inventors have conducted studies in which the amino terminal SH2 domain of Ras Gap was expressed as a fusion protein containing the glutathione S transferase protein (GST). These studies involve mixing GST-Gap SH2 with phosphotyrosine tryptic peptides of Bcr-Abl.
# c-Abl SH2 = molecular target: T2, c-Abl SH2; assay: Binding of phosphotyrosine tryptic peptides of Bcr-Abl to GST-Abl SH2; conditions: phosphotyrosine tryptic peptides of p210 Bcr-Abl; no binding to GST
# Text: FIG. 10A and FIG. 10B show an absorbed tryptic map of p210. GST-Abl SH2 binds phosphotyrosine tryptic peptide 3, which contains tyrosine 283. p210 Bcr-Abl labeled in the in vitro kinase assay from K562 cells was purified on SDS gels, digested with trypsin and the digest was split in two parts. One was absorbed with GST (FIG. 10A) and the other with GST-Abl SH2 (FIG. 10B). […] The dashed circles identify peptides lacking in the GST-Abl SH2 absorbed fractions.
# The inventors performed similar studies with the SH2 domain of Abl. These were performed with a mouse c-Abl SH2 sequence, which differs by only two amino acids from the human sequence within the SH2 domain.
# SH2 domain of Grb2 = SH2 domain of Grb2 (Homo sapiens, UniProt P62993); assay: Binding of Bcr peptide to Grb2; conditions: tyrosine 177 phosphorylated peptide
# SH2 domain of Grb2, sequence (P62993 whole entry, the tested form may be a part): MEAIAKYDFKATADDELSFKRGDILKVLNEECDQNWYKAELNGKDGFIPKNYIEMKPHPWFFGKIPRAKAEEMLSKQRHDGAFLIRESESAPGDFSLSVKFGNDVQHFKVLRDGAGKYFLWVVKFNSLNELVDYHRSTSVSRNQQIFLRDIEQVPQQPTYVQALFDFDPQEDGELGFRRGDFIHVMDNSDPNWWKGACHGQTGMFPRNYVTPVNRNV
# simian Grb2 protein = assay: Co-immunoprecipitation of Grb2 with p160 BCR from COS1 cells, anti-Grb2 Western blotting; assay type: binding; conditions: COS1 cells coexpressing p145 c-ABL(1b)
# Experimental: Anti-Grb2 Western blotting was performed on anti-BCR (1256-1271) antibody immunoprecipitates of lysates from COS1 cells cotransfected p145 c-ABL with either wild type p160 BCR (lanes 1 and 2) or p160 BCR (F177) (lanes 3 and 4) mutant. Lanes 2 and 4 are immunoprecipitation with pre-blocked anti-BCR (1256-1271) antibody. COS1 cells express an endogenous simian Grb2 protein detected by Western blotting (FIG. 18, lane 1). P160 BCR and p145 c-ABL(1b) were separately or simultaneously expressed in COS1 cells. Two days after transfection, cells were harvested. The cell lysates were clarified by ultracentrifugation and the supernatants were incubated with either anti-BCR c-terminal (1256-1271) antibody (FIG. 18, lanes 2, 4 and 6) or peptide preblocked antibody (FIG. 18, lanes 3, 5 and 7). The immunoprecipitated proteins were then fractionated by a 10% polyacrylamide SDS PAGE and then transferred to a p-immoblin membrane. The membrane was then blotted by an anti-Grb2 antibody (FIG. 18). In this study, p145 c-ABL was coexpressed with either wild type p160 BCR or the mutant p160 BCR(F177) in COS1 cells. Cell lysates were subjected to immunoprecipitation by anti-BCR C-terminal (1256-1271) antibody and the immunoprecipitates were analyzed by Western blotting with an anti-Grb2 antibody.
Molecule,Binding to GST-Ras Gap SH2 fusion protein [1],Binding to GST-Abl SH2 (c-Abl SH2),Co-immunoprecipitation of simian Grb2 protein by anti-BCR C-terminal (1256-1271) antibody (simian Grb2 protein),further results
"FLKDNLIDANGGSRPPWPPLEYQPYQSIYVGGMMEGEGK (also: phosphotyrosine, position not given here) [#3, phosphotyrosine tryptic peptide 3 of p210 Bcr-Abl]",specifically bound,bind,–,–
GHGQPGADAEKPFpY^177VNVE (GHGQPGADAEKPF[pY]VNVE) [Bcr Peptide 164-181],–,–,–,Binding to the SH2 binding site on Grb2 (SH2 domain of Grb2): binds; Binding to the SH2 binding site on Grb2 (SH2 domain of Grb2; listed as SEQ ID NO:8): strongly binds
"NSLETLLYK (NSLETLL[pY]K) [#8, phosphotyrosine tryptic peptide 8 of p210 Bcr-Abl, outside of the first exon]",specifically bound,bind,–,–
B1,–,–,bind specifically,–
B2,–,–,much reduced level,–
